Binding result and Kd data for 5 molecules are collected here from patent publication US20260151519A1 (AKTIS ONCOLOGY, published 2026).

Primed or numbered codes have the meaning given here. Where no end group is shown, it is not given here. [ ]: non-standard residue; d: D form. The star is where a group is joined. Biotin = O=C1N[C@H]2[C@H](CS[C@H]2CCCCC(=O)*)N1; Lys(Me3) = C[N+](C)(C)CCCC[C@H](N)C(=O)O; PEG4′ = not defined here

One experiment addresses T1, CXCL12 (human, UniProt P48061 22-93).
T1 construct: whole, on cells; Secreted targets were tethered to the plasma membrane
Kind of experiment: cell microarray on HEK293 cells. As to the method:
(§1) Initially, two pools of compounds were tested. […] To perform this assay, HEK293 cells were plated on a dish and localized spots of cells were transiently over-expressed with a single cDNA encoding for GFP and one of the 6,416 targets. Included in this library were multiple clones for the Nectin family members, including plasma membrane, non-tethered secreted, and tethered secreted forms of Nectin-1, 2, 3, and 4. Secreted protein targets were tethered to the plasma membrane to aid in detection. The molecule pools were incubated on the fixed, over-expressing cell microarrays (n=2 per protein), and binding was visualized using Alexa Fluor 647 streptavidin fluorescence.

Another experiment addresses T2, PLPP3 (human, UniProt O14495 1-311).
T2 construct: whole, on cells
T2 sequence (looked up): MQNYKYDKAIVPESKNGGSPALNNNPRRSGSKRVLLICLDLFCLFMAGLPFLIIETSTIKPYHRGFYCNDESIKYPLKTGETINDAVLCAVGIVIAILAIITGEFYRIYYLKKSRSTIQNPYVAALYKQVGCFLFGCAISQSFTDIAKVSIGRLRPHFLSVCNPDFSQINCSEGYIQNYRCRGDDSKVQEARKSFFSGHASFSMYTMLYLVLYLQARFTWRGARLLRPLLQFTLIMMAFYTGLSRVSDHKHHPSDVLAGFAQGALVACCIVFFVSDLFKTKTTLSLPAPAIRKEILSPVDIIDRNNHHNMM
Kind of experiment: cell microarray on HEK293 cells. As for the experimental part: as §1

Another experiment addresses T3, IGF2 (human, UniProt P01344 25-91).
T3 construct: whole, on cells; Secreted targets were tethered to the plasma membrane
Put plainly: cell microarray on HEK293 cells. As for the experimental part: as §1

The next experiment has as its target T4, IGFBP5 (human, UniProt P24593 21-272).
T4 construct: whole, on cells; Secreted targets were tethered to the plasma membrane
Put plainly: cell microarray on HEK293 cells. As for the experimental part:
as §1

Experiment [1] concerns the target T5, Human Nectin-4 (human, UniProt Q96NY8 32-349, limits assumed).
T5 construct: Protein immobilised on the SPR chip; also called target protein
T5 sequence: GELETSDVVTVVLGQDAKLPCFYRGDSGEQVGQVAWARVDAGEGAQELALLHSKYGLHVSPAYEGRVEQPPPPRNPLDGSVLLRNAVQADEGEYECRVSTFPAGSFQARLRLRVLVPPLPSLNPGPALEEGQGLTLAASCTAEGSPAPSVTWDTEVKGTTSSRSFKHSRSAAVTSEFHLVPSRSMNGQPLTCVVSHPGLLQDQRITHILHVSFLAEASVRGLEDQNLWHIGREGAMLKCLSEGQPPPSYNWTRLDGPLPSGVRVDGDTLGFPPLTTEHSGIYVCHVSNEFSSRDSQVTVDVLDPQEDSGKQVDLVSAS
Kind of experiment: SPR, Biacore T200, target immobilised, 1:1 model. As to the method: Surface plasmon resonance (SPR) analyses were performed using Biacore T200 (GE Healthcare). Target protein (“ligand”) was immobilized to a CM5 Series S sensor chip (Cytiva) using amine-coupling chemistry. Running buffer was 0.05% surfactant P20 in HEPES buffered saline (HBS-P), pH 7.4 (Cytiva). Immobilization was performed at 25° C. Carboxyl groups in each flow cell were activated using a 1:1 mixture of 0.4 M 1-ethyl-3-(3-dimethylaminopropyl)-carbodiimide in water (EDC) and 0.1 M N-hydroxysuccinimide in water (NHS) for 7 minutes. The ligand was prepared in 10 mM sodium acetate pH 5 (Cytiva). Pulsatile injections were made to target a specific immobilization level. Any remaining amine-reactive esters on the chip surface were blocked with a 7-minute injection of 1 M ethanolamine, pH 8.5. Three 10-second pulses of 50 mM sodium hydroxide were then made to remove any unbound ligand. Reference cells were modified using amine coupling chemistry, omitting ligand injection.
Increase in signal (RU) is proportional to an increase in binding events between the analyte and ligand surface. The injection was then stopped, and dissociation was measured. […] Measured association (kₐ, 1/Ms⁻¹) and dissociation (kd, s⁻¹) were fit to a 1:1 binding model to calculate a dissociation equilibrium constant, KD(M) for each analyte.
In general terms: SPR reads the build-up and loss of mass on a sensor chip optically.

Experiment [2] deals with T5, Human Nectin-4. Kind of experiment: Table 2B (DELFIA or SPR).
A further experiment has as its target T6, Nectin-1 (human, UniProt Q15223 31-517).
T6 construct: whole, on cells; Plasma membrane, non-tethered secreted and tethered secreted forms in the library
T6 sequence (looked up): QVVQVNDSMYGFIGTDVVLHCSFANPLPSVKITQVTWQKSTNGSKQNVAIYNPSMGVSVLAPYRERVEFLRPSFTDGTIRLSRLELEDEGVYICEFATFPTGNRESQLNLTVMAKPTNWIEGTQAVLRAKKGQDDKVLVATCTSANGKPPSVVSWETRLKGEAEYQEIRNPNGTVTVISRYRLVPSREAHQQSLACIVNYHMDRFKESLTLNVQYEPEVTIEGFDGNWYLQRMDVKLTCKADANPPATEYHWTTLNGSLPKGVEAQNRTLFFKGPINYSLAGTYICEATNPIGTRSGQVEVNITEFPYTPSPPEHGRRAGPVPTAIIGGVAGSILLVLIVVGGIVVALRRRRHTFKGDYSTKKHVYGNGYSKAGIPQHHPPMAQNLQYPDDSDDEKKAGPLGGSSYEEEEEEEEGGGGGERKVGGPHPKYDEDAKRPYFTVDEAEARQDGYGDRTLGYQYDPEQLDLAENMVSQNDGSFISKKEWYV
Kind of experiment: cell microarray on HEK293 cells, pooled compounds. As to the method: as §1

The next experiment deals with T7, Nectin-2 (human, UniProt Q92692 32-538).
T7 construct: whole, on cells; Plasma membrane, non-tethered secreted and tethered secreted forms in the library
T7 sequence (looked up): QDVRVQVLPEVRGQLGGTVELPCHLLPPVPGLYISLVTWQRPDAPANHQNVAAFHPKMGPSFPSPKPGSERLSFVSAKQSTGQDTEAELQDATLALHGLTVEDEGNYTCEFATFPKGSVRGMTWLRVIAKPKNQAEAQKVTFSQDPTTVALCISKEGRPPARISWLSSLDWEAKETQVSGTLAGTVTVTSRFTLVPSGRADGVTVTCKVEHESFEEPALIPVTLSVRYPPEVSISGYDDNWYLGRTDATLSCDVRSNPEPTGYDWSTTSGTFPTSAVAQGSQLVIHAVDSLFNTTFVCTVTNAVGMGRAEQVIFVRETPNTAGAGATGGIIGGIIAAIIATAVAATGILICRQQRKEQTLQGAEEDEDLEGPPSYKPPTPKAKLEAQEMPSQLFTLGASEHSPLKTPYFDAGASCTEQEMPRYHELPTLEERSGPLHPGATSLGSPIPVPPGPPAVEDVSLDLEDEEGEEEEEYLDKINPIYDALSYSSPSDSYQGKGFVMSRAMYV
Kind of experiment: cell microarray on HEK293 cells, pooled compounds. As to the method:
as §1

T4 sequence (P24593 21-272): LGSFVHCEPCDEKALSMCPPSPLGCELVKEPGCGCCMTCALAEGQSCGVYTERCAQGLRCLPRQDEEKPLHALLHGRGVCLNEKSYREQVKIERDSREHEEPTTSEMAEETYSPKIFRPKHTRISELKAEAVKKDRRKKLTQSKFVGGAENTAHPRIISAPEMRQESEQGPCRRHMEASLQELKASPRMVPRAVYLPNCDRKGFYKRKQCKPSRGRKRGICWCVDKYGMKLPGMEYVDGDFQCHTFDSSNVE
T3 sequence (P01344 25-91): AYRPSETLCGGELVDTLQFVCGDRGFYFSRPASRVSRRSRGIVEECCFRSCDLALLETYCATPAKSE
T1 sequence (P48061 22-93): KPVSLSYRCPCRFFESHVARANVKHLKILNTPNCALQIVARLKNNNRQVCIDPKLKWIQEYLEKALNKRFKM

For orientation: Kd means the constant that tells how readily two partners part at equilibrium. A lower Kd goes with a tighter complex. Regarding {Biotin-PEG4′}-CDYDEQFFTALKRLRGADICEYIQASFQYLPGECIEEILDNLGCS (designed binder, cysteine pairing not given here) [C208], the binding result with CXCL12, in the experiment with PLPP3, in the experiment with IGF2, with IGFBP5, in the experiment with Nectin-1 and in the experiment with Nectin-2 was “no binding (tested: 2 µg/mL)” in each case. Moreover, the Kd was 0.302 nM with Human Nectin-4 [1] and 1.02 nM in the experiment with Human Nectin-4 [2].
With {Biotin-PEG4′}-CEYDEQFFTALKRLRGDDICDYIQASFQYLPGLCIEEILDNLGCS (designed binder, cysteine pairing not given here) [C197], the binding result with CXCL12, with PLPP3, in the experiment with IGF2, with IGFBP5, with Nectin-1 and with Nectin-2 was “no binding (tested: 2 µg/mL)” throughout. Moreover, the values for the dissociation constant (Kd) in the experiment with Human Nectin-4 [1] and with Human Nectin-4 [2] were 0.212 nM and 0.97 nM, respectively.
On to {Biotin-PEG4′}-CDYDEQFFTALARLRGADICEYIQASFQYLPGECIEEILDNLGCS (designed binder, cysteine pairing not given here) [C247], for which the binding result in the experiment with CXCL12, with PLPP3, with IGF2, with IGFBP5, in the experiment with Nectin-1 and with Nectin-2 was “no binding (tested: 2 µg/mL)” each time. Besides, the Kd with Human Nectin-4 [1] stood at 0.283 nM.
Consider {Biotin-PEG4′}-CDYDEQFFTALKRLRGGDICEYIQASFQYLPGLCIEEILDNLGCS (designed binder, cysteine pairing not given here) [C190], for which the binding result with CXCL12, in the experiment with PLPP3, with IGF2, in the experiment with IGFBP5, with Nectin-1 and with Nectin-2 was “no binding (tested: 2 µg/mL)” each time. Besides, the Kd was 0.318 nM with Human Nectin-4 [1] and 0.71 nM with Human Nectin-4 [2].
In the case of {Biotin-PEG4′}-CEYDEEFFTALARLRGGDICQYIQA[Lys(Me3)]FQYLPALCIEEILDNLGCS (designed binder, cysteine pairing not given here) [C253], the binding result with CXCL12, in the experiment with PLPP3, with IGF2, with IGFBP5, with Nectin-1 and in the experiment with Nectin-2 was “no binding (tested: 2 µg/mL)” throughout. For the same molecule, the Kd in the experiment with Human Nectin-4 [1] came to 0.255 nM.
